Here are results for five proteins from FireProtDB.

“And” between values parts separate entries of the source, which are not always exact repeats. Identical values can stand only once.

For the data set the following is noted: whole UniProt chain shown.
Where [1] appears, read: Thermus thermophilus, pH 7, Thermal, Fluorescence, potassium phosphate 50 mM, DTT 1 mM, reversible: yes.
The mark [2] stands for this setting: Sulfolobus acidocaldarius (strain ATCC 33909 / DSM 639 / JCM 8929 / NBRC 15157 / NCIMB 11770), pH 7, Thermal, DSC, Acetate 10 mM, reversible: Yes.
The mark [3] stands for this setting: Sulfolobus acidocaldarius (strain ATCC 33909 / DSM 639 / JCM 8929 / NBRC 15157 / NCIMB 11770), pH 7, Thermal, DSC, Unknown, reversible: yes.

B1: 3-isopropylmalate dehydrogenase wild type, P61495 (protein)
chain: MKVAVLPGDGIGPEVTEAALKVLRALDEAEGLGLAYEVFPFGGAAIDAFGEPFPEPTRKGVEEAEAVLLGSVGGPKWDGLPRKISPETGLLSLRKSQDLFANLRPAKVFPGLERLSPLKEEIARGVDVLIVRELTGGIYFGEPRGMSEAEAWNTERYSKPEVERVARVAFEAARKRRKHVVSVDKANVLEVGEFWRKTVEEVGRGYPDVALEHQYVDAAAMHLVRSPARFDVVVTGNIFGDILSDLASVLPGSLGLLPSASLGRGTPVFEPVHGSAPDIAGKGIANPTAAILSAAMMLEHAFGLVELARKVEDAVAKALLETPPPDLGGSAGTEAFTATVLRHLA
Turning to B1, the denaturant m value (Thermus thermophilus, pH 7, 27 °C, Urea, Fluorescence, Potassium phosphate 50 mM, transition: 3, reversible: yes) was 1.2 kcal/mol/M and 1.41 kcal/mol/M. In addition, the Tm (Thermus thermophilus, pH 7, Thermal, CD, phosphate 20 mM) was 87 °C; the midpoint of thermal melting (Tm) (Thermus thermophilus, pH 7, Thermal, CD, sodium phosphate, ammonium sulfate 1.0-1.5 M) came to 87 °C; the Tm under setting [1] amounted to 30.9 °C; the Tm (Thermus thermophilus, pH 7.6, Thermal, Activity, potassium phosphate 20 mM, reversible: No) is 84.7 °C; the Tm (Thermus thermophilus, pH 7.6, Thermal, CD, phosphate 20 mM, reversible: No) amounted to 87.4 °C; the Tm (Thermus thermophilus, pH 10.4, Thermal, CD, NaHCO3 20 mM) was found to be 87 °C. Moreover, the “heat capacity change of unfolding” value under setting [1] turned out to be 1.73 kcal/mol/K. Under setting [1], the “unfolding enthalpy (van 't Hoff)” value is 15.8 kcal/mol.

B2: Glutathione S-transferase P wild type, P80031 (protein)
chain: PPYTITYFPVRGRCEAMRMLLADQDQSWKEEVVTMETWPPLKPSCLFRQLPKFQDGDLTLYQSNAILRHLGRSFGLYGKDQKEAALVDMVNDGVEDLRCKYATLIYTNYEAGKEKYVKELPEHLKPFETLLSQNQGGQAFVVGSQISFADYNLLDLLRIHQVLNPSCLDAFPLLSAYVARLSARPKIKAFLASPEHVNRPINGNGKN
For B2, the unfolding free energy (Sus scrofa, pH 6.5, 20 °C, GdnHCl, CD, Mes-NaOH 20 mM, NaCl 0.1 M) is 11.6 kcal/mol and 22.5 kcal/mol.

B3: Dihydrofolate reductase wild type, Q60034 (protein)
chain: MAKVIFVLAMDVSGKIASSVESWSSFEDRKNFRKITTEIGNVVMGRITFEEIGRPLPERLNVVLTRRPKTSNNPSLVFFNGSPADVVKFLEGKGYERVAVIGGKTVFTEFLREKLVDELFVTVEPYVFGKGIPFFDEFEGYFPLKLLEMRRLNERGTLFLKYSVEKSHR
Take B3: the denaturant m value was 13.2 kcal/mol/M (Thermotoga maritima (strain ATCC 43589 / DSM 3109 / JCM 10099 / NBRC 100826 / MSB8), pH 7.8, 5 °C, GdnHCl, CD, Potassium phosphate 10 mM, reversible: yes); 9.4 kcal/mol/M (Thermotoga maritima (strain ATCC 43589 / DSM 3109 / JCM 10099 / NBRC 100826 / MSB8), pH 7.8, 15 °C, GdnHCl, CD, Potassium phosphate 10 mM, reversible: yes); 4.71 kcal/mol/M (Thermotoga maritima (strain ATCC 43589 / DSM 3109 / JCM 10099 / NBRC 100826 / MSB8), pH 7.8, 15 °C, Urea, CD, Potassium phosphate 10 mM, reversible: yes); 7.15 kcal/mol/M (Thermotoga maritima (strain ATCC 43589 / DSM 3109 / JCM 10099 / NBRC 100826 / MSB8), pH 7.8, 25 °C, GdnHCl, CD, Potassium phosphate 10 mM, reversible: yes); 5.98 kcal/mol/M (Thermotoga maritima (strain ATCC 43589 / DSM 3109 / JCM 10099 / NBRC 100826 / MSB8), pH 7.8, 37 °C, GdnHCl, CD, Potassium phosphate 10 mM, reversible: yes); 6.24 kcal/mol/M (Thermotoga maritima (strain ATCC 43589 / DSM 3109 / JCM 10099 / NBRC 100826 / MSB8), pH 7.8, 55 °C, GdnHCl, CD, Potassium phosphate 10 mM, reversible: yes). The denaturant m value (Thermotoga maritima (strain ATCC 43589 / DSM 3109 / JCM 10099 / NBRC 100826 / MSB8), pH 7.8, 70 °C, GdnHCl, CD, Potassium phosphate 10 mM, reversible: yes) is 7.56 kcal/mol/M.

B4: Tryptophan synthase alpha chain wild type, P00929 (protein)
chain: MERYENLFAQLNDRREGAFVPFVTLGDPGIEQSLKIIDTLIDAGADALELGVPFSDPLADGPTIQNANLRAFAAGVTPAQCFEMLALIREKHPTIPIGLLMYANLVFNNGIDAFYARCEQVGVDSVLVADVPVEESAPFRQAALRHNIAPIFICPPNADDDLLRQVASYGRGYTYLLSRSGVTGAENRGALPLHHLIEKLKEYHAAPALQGFGISSPEQVSAAVRAGAAGAISGSAIVKIIEKNLASPKQMLAELRSFVSAMKAASRA
For B4, for the setting “Salmonella typhimurium (strain LT2 / SGSC1412 / ATCC 700720), pH 7, 25 °C, GdnHCl, CD, Potassium phosphate 0.01 M, reversible: yes”, the unfolding free energy came to 9.7 kcal/mol. Besides, the Tm (Salmonella typhimurium (strain LT2 / SGSC1412 / ATCC 700720), pH 7.8, Thermal, Enzyme activity, sodium N/N-bis(2-hydroxyethyl)glycine 0.05 M) was 46 °C and the Tm (Salmonella typhimurium (strain LT2 / SGSC1412 / ATCC 700720), pH 9, Thermal, DSC, Sodium tetraborate 1 mM, reversible: yes(>70%)) worked out at 47.6 °C.

B5: DNA-binding protein 7d wild type, P13123 (protein)
chain: MVKVKFKYKGEEKEVDTSKIKKVWRVGKMVSFTYDDNGKTGRGAVSEKDAPKELLDMLARAEREKK
For B5, the Tm was found to be 86.8 °C (Sulfolobus acidocaldarius (strain ATCC 33909 / DSM 639 / JCM 8929 / NBRC 15157 / NCIMB 11770), pH 4, Thermal, DSC, Potassium acetate 0.05 M, KCl 0.3 M, reversible: yes); 99.4 °C (Sulfolobus acidocaldarius (strain ATCC 33909 / DSM 639 / JCM 8929 / NBRC 15157 / NCIMB 11770), pH 6, Thermal, DSC, KH2PO4 0.01 M, KCl 0.1 M, reversible: yes); 90.7 °C under setting [2]; 90.7 °C under setting [3]. For the same protein, the “heat capacity change of unfolding” value reads like this: under setting [2], 0.71 kcal/mol/K; under setting [3], 0.71 kcal/mol/K. Moreover, the “unfolding enthalpy (calorimetric)” value was determined as 58.5 kcal/mol under setting [2] and 58.5 kcal/mol under setting [3].

Usually Tm stands for the temperature at the midpoint of the melting transition.
